{"source": "patent US8183228B2", "about": "“Anticoagulant antithrombotic dual inhibitors comprising a biotin label” (MSD OSS B.V. Netherlands, priority 2005, dated 2012)", "experiment": "Pharmacokinetics - neutralization experiment with avidin i.v. in rat", "assay_type": "in vivo", "conditions": "s.c. 500 nmol/kg", "method": "3.2 Pharmacokinetics—Neutralization Experiment:\nRats were treated with compound 10, 12, or 27 at a dose of 100 nmol/kg s.c. At t=1 h, a blood sample was taken and 10 mg/kg of Avidin (from egg white, Sigma) was administered i.v. to the rats treated with compound 10 or 12. Blood was sampled at 0.5-1-3-6 and 23 hours subsequently. The blood was treated as described in the pharmacokinetic experiment and the concentration of the samples was determined by measuring the (residual) anti-Xa activity. (FIG. 8)\nIn a separate experiment compound 10, 17 or 26 was administered at a dose of 500 nmol/kg s.c. after which blood was collected at 24 hours. Then 10 mg/kg avidin was administered intravenously and blood was collected at 25 and 26 hours. (FIG. 9)", "note": "Where a name gives a salt, the structure may show the parent alone.", "data": [{"smiles": "CO[C@H]1O[C@H](COS(=O)(=O)O)[C@@H](O[C@@H]2O[C@@H](C(=O)O)[C@@H](O[C@H]3O[C@H](COS(=O)(=O)O)[C@@H](O[C@@H]4O[C@H](C(=O)O)[C@@H](O[C@H]5O[C@H](COS(=O)(=O)O)[C@@H](OCCOCCOCCOCCNC(=O)[C@H](CCCCN(C)C(=O)CCCC[C@@H]6SC[C@@H]7NC(=O)N[C@@H]76)NC(=O)COCCOCCOCCOCCNC(=O)c6cccc(S(=O)(=O)N[C@@H](Cc7ccc(OCCCCC8CCNCC8)cc7)C(=O)O)c6)[C@H](OC)[C@H]5OC)[C@H](OC)[C@H]4OC)[C@H](OS(=O)(=O)O)[C@H]3OS(=O)(=O)O)[C@H](OC)[C@H]2OC)[C@H](OS(=O)(=O)O)[C@H]1OS(=O)(=O)O", "note": "[Compound 26, sodium salt]", "values": [{"measurement": "level at time molar at 24 h", "setting": "plasma, sc, 24 h, before avidin, read-out: Plasma level T = 24 h", "result": "1.07 ± 0.058", "unit": "µM"}, {"measurement": "Plasma level T = 26 h", "setting": "2 hours after avidin 10 mg/kg i.v. at t = 24 h", "result": "0.361 ± 0.026", "unit": "µM"}, {"measurement": "% reduction of plasma concentration", "setting": "within 2 hours after avidin 10 mg/kg i.v. at t = 24 h, sodium salt", "result": 66, "unit": "%"}]}]}
